Biological target: recombinant WBSCR16-GST fusion protein (mouse, UniProt Q9CYF5 35-461)
Experiment: SPR

Kd: 37 nM
B1: recombinant MRPP3-His fusion protein (230–583 amino acids of MRPP3) (domain or fragment)
chain: LLLLEDIKKVITPSKKNYNDCIQGALLHQDVNTAWNLYQELLGHDIVPMLETLKAFFDFGKDIKDDNYSNKLLDILSYLRNNQLYPGESFAHSIKTWFESVPGKQWKGQFTTVRKSGQCSGCGKTIESIQLSPEEYECLKGKIMRDVIDGGDQYRKTTPQELKRFENFIKSRPPFDVVIDGLNVAKMFPKVRESQLLLNVVSQLAKRNLRLLVLGRKHMLRRSSQWSRDEMEEVQKQASCFFADDISEDDPFLLYATLHSGNHCRFITRDLMRDHKACLPDAKTQRLFFKWQQGHQLAIVNRFPGSKLTFQRILSYDTVVQTTGDSWHIPYDEDLVERCSCEVPTKWLCLHQKT
